Data from the Human Domainome abundance scans (Beltran et al. 2025).
± gives the uncertainty stated by the source.

B1: Integrator complex subunit 12, residues 155 to 213; numbered along this chain, Q96CB8 (parent)
chain: AMEMGLACVVCRQMMVASGNQLVECQECHNLYHRDCHKPQVTDKEANDPRLVWYCARCT

Variants of: B1
Assay: abundance fitness (aPCA) (normalised: wild type 0, dead -1); higher = more abundant; growth selection in yeast, the domain comes from the species named
Settings: Homo sapiens

Row | Variant | abundance fitness
1 | AMEMGLACVVCRQMMVASGNQLVECQECHNLYHRDCHKPQVTDKEANDPRLVWYSARCT [C55S] | -0.897 ± 0.075
2 | AMEMGLACVVCRQMMVASGNQLVECQECHNLYHRDCHKPQVTDKEANDPRLVWYYARCT [C55Y] | -0.913 ± 0.13
3 | AMEMGLACVVCRQMMVASGNQLVECQECHNLYHRDCHKPQVTDKEANDPRLVWYNARCT [C55N] | -0.615 ± 0.21
4 | AMEMGLACVVCRQMMVASGNQLVECQECHNLYHRDCHKPQVTDKEANDPRLVWYTARCT [C55T] | -1.16 ± 0.11
5 | AMEMGLACVVCRQMMVASGNQLVECQECHNLYHRDCHKPQVTDKEANDPRLVWYMARCT [C55M] | -1.11 ± 0.11
6 | AMEMGLACVVCRQMMVASGNQLVECQECHNLYHRDCHKPQVTDKEANDPRLVWYIARCT [C55I] | -1.09 ± 0.28
7 | AMEMGLACVVCRQMMVASGNQLVECQECHNLYHRDCHKPQVTDKEANDPRLVWYPARCT [C55P] | -0.891 ± 0.11
8 | AMEMGLACVVCRQMMVASGNQLVECQECHNLYHRDCHKPQVTDKEANDPRLVWYHARCT [C55H] | -0.938 ± 0.18
9 | AMEMGLACVVCRQMMVASGNQLVECQECHNLYHRDCHKPQVTDKEANDPRLVWYAARCT [C55A] | -0.809 ± 0.066
10 | AMEMGLACVVCRQMMVASGNQLVECQECHNLYHRDCHKPQVTDKEANDPRLVWYQARCT [C55Q] | -1.01 ± 0.13
11 | AMEMGLACVVCRQMMVASGNQLVECQECHNLYHRDCHKPQVTDKEANDPRLVWYEARCT [C55E] | -0.765 ± 0.067
12 | AMEMGLACVVCRQMMVASGNQLVECQECHNLYHRDCHKPQVTDKEANDPRLVWYGARCT [C55G] | -0.913 ± 0.06
13 | AMEMGLACVVCRQMMVASGNQLVECQECHNLYHRDCHKPQVTDKEANDPRLVWYWARCT [C55W] | -1.11 ± 0.1
14 | AMEMGLACVVCRQMMVASGNQLVECQECHNLYHRDCHKPQVTDKEANDPRLVWYLARCT [C55L] | -1.09 ± 0.089
15 | AMEMGLACVVCRQMMVASGNQLVECQECHNLYHRDCHKPQVTDKEANDPRLVWYFARCT [C55F] | -1.05 ± 0.21
16 | AMEMGLACVVCRQMMVASGNQLVECQECHNLYHRDCHKPQVTDKEANDPRLVWYVARCT [C55V] | -1.08 ± 0.095
17 | AMEMGLACVVCRQMMVASGNQLVECQECHNLYHRDCHKPQVTDKEANDPRLVWYRARCT [C55R] | -0.774 ± 0.05
18 | AMEMGLACVVCRQMMVASGNQLVECQECHNLYHRDCHKPQVTDKEANDPRLVWYDARCT [C55D] | -0.507 ± 0.14
19 | AMEMGLACVVCRQMMVASGNQLVECQECHNLYHRDCHKPQVTDKEANDPRLVWYCAFCT [R57F] | -0.234 ± 0.095
20 | AMEMGLACVVCRQMMVASGNQLVECQECHNLYHRDCHKPQVTDKEANDPRLVWYCAICT [R57I] | -0.103 ± 0.086
21 | AMEMGLACVVCRQMMVASGNQLVECQECHNLYHRDCHKPQVTDKEANDPRLVWYCACCT [R57C] | -0.075 ± 0.068
22 | AMEMGLACVVCRQMMVASGNQLVECQECHNLYHRDCHKPQVTDKEANDPRLVWYCAHCT [R57H] | -0.046 ± 0.081
23 | AMEMGLACVVCRQMMVASGNQLVECQECHNLYHRDCHKPQVTDKEANDPRLVWYCAACT [R57A] | -0.018 ± 0.039

Row | Variant | abundance fitness
24 | AMEMGLACVVCRQMMVASGNQLVECQECHNLYHRDCHKPQVTDKEANDPRLVWYCAGCT [R57G] | 0.051 ± 0.035
25 | AMEMGLACVVCRQMMVASGNQLVECQECHNLYHRDCHKPQVTDKEANDPRLVWYCAECT [R57E] | -0.013 ± 0.043
26 | AMEMGLACVVCRQMMVASGNQLVECQECHNLYHRDCHKPQVTDKEANDPRYVWYCARCT [L51Y] | -0.169 ± 0.071
27 | AMEMGLACVVCRQMMVASGNQLVECQECHNLYHRDCHKPQVTDKEANDPRVVWYCARCT [L51V] | -0.003 ± 0.052
28 | AMEMGLACVVCRQMMVASGNQLVECQECHNLYHRDCHKPQVTDKEANDPRWVWYCARCT [L51W] | -0.108 ± 0.059
29 | AMEMGLACVVCRQMMVASGNQLVECQECHNLYHRDCHKPQVTDKEANDPRLPWYCARCT [V52P] | 0.019 ± 0.052
30 | AMEMGLACVVCRQMMVASGNQLVECQECHNLYHRDCHKPQVTDKEANDPRLWWYCARCT [V52W] | -0.36 ± 0.092
31 | AMEMGLACVVCRQMMVASGNQLVECQECHNLYHRDCHKPQVTDKEANDPRLFWYCARCT [V52F] | -0.126 ± 0.064
32 | AMEMGLACVVCRQMMVASGNQLVECQECHNLYHRDCHKPQVTDKEANDPRLMWYCARCT [V52M] | -0.033 ± 0.055
33 | AMEMGLACVVCRQMMVASGNQLVECQECHNLYHRDCHKPQVTDKEANDPRLIWYCARCT [V52I] | -0.095 ± 0.057
34 | AMEMGLACVVCRQMMVASGNQLVECQECHNLYHRDCHKPQVTDKEANDPRLTWYCARCT [V52T] | 0.034 ± 0.053
35 | AMEMGLACVVCRQMMVASGNQLVECQECHNLYHRDCHKPQVTDKEANDPRLKWYCARCT [V52K] | 0.103 ± 0.065
36 | AMEMGLACVVCRQMMVASGNQLVECQECHNLYHRDCHKPQVTDKEANDPRLDWYCARCT [V52D] | 0.025 ± 0.061
37 | AMEMGLACVVCRQMMVASGNQLVECQECHNLYHRDCHKPQVTDKEANDPRLGWYCARCT [V52G] | 0.023 ± 0.051
38 | AMEMGLACVVCRQMMVASGNQLVECQECHNLYHRDCHKPQVTDKEANDPRLRWYCARCT [V52R] | -0.032 ± 0.046
39 | AMEMGLACVVCRQMMVASGNQLVECQECHNLYHRDCHKPQVTDKEANDPRLLWYCARCT [V52L] | -0.018 ± 0.044
40 | AMEMGLACVVCRQMMVASGNQLVECQECHNLYHRDCHKPQVTDKEANDPRLYWYCARCT [V52Y] | -0.284 ± 0.087
41 | AMEMGLACVVCRQMMVASGNQLVECQECHNLYHRDCHKPQVTDKEANDPRLNWYCARCT [V52N] | -0.012 ± 0.08
42 | AMEMGLACVVCRQMMVASGNQLVECQECHNLYHRDCHKPQVTDKEANDPRLAWYCARCT [V52A] | 0.036 ± 0.051
43 | AMEMGLACVVCRQMMVASGNQLVECQECHNLYHRDCHKPQVTDKEANDPRLCWYCARCT [V52C] | -0.009 ± 0.092
44 | AMEMGLACVVCRQMMVASGNQLVECQECHNLYHRDCHKPQVTDKEANDPRLHWYCARCT [V52H] | -0.036 ± 0.076
45 | AMEMGLACVVCRQMMVASGNQLVECQECHNLYHRDCHKPQVTDKEANDPRLVVYCARCT [W53V] | -0.398 ± 0.064
